Test results: US20020103121A1

Target: GAL4 activation domain-E2F-1 hybrid protein (GAD.E2F-1) (human)
Assay: cell-based or functional assay

LexA-DP-1^172/173 hybrid protein (pLEX-DP-1/MT) (from UniProt Q08639 1-410)
activity in the yeast two-hybrid assay relative to wild-type DP-1 (% reduction relative to wild-type DP-1): 50
response of the E2F binding site reporter in yeast: 50 % reduction
